Test results from US7803921B2, “Sulfotransferase 1E1 sequence variants” (Mayo Foundation for Medical Education and Research, priority 2002, dated 2010).
Read-outs that look alike come from different tables or passages of the source. Marks after values point to notes of the source that are not given here.

How the values were obtained:
[1] = test system: SULT1E1; assay: Enzyme thermal stability (T50) of recombinant SULT1E1 allozymes; assay type: physicochemical, human; conditions: for T50 value as compared to the wild-type enzyme: in words; for Thermal Stability T50: temperature resulting in 50% thermal inactivation, 15 minutes at 28° C. to 46° C., mean ± SEM (n = 3)
Protocol: Enzyme thermal stability was measured by diluting COS-1 cell supernatant preparations for each of the recombinant SULT1E1 allozymes and incubating them in a water bath for 15 minutes at temperatures ranging from 28° C. to 46° C. The samples were placed on ice immediately after incubation. Aliquots of the same supernatant preparations also were kept on ice as controls. Enzyme activity was measured in both heated and unheated samples, and blank values were determined for each temperature studied.

[2] = test system: SULT1E1; assay: SULT1E1 allozyme substrate kinetics (apparent Km, Vmax) with E2 and PAPS as cosubstrates; assay type: biochemical, human; conditions: for Vmax, PAPS as Varied Substrate / Km / Vmax, E2 as Varied Substrate: mean ± SEM (n = 3); for apparent Km for PAPS, fold higher than the wild type enzyme: PAPS as substrate; for apparent Km for PAPS, fold higher than the wild type enzyme / apparent Km for estradiol, fold higher than the wild type enzyme: versus wild type; for apparent Km for estradiol, fold higher than the wild type enzyme: estradiol as substrate
Source text: Other biochemical properties of allozymes, such as apparent Km values, also can be altered relative to the reference SULT1E1. Apparent Km values can be calculated, for example, by using the method of Wilkinson with a computer program written by Cleland. Wilkinson (1961) Biochem. J. 80:324-332 and Cleland (1963) Nature 198:463-365. As described herein, the apparent Km values for PAPS varied more than 3-fold among the allozymes tested (Asp22Tyr, Ala32Val, and Pro253His).
Apparent Km values for each allozyme were determined with both cosubstrates. Initial experiments used 10-fold serial dilutions of E2 that ranged from 10^−3 to 10^−9 M. Apparent Km values were calculated by using the method of Wilkinson with a computer program written by Cleland (see, Wilkinson (1961) Biochem J 80:324-332; and Cleland (1963) Nature 198:463-365). Maximal activity for all allozymes was found at E2 concentrations near 100 nM. A second set of experiments was performed in the presence of 0.4 μM PAPS using eight concentrations of E2 that varied from 3.1 nM to 400 nM.

[3] = 50 nM E2, PAPS 2.7 nM to 150 nM
[4] = 50 nM E2, PAPS 2.7 nM to 150 nM, read-out: Apparent Km, PAPS as Varied Substrate
[5] = 0.4 μM PAPS, E2 3.1 nM to 400 nM
[6] = 0.4 μM PAPS, E2 3.1 nM to 400 nM, read-out: Apparent Km, E2 as Varied Substrate

Row | Molecule | T50 value as compared to the wild-type enzyme [1] | Thermal Stability T50 [1] | Vmax, PAPS as Varied Substrate [2, 3] | Km [2, 4] [µM] | Vmax, E2 as Varied Substrate [2, 5] | Km [2, 6] [µM] | apparent Km for PAPS, fold higher than the wild type enzyme [2] | apparent Km for estradiol, fold higher than the wild type enzyme [2]
1 | Ala32Val: SULT1E1 allozyme with valine in place of alanine at residue 32 (thymine at nucleotide 95) (protein, UniProt P49888 1-294, looked up, variant A32V) Sulfotransferase 1E1: MNSELDYYEKFEEVHGILMYKDFVKYWDNVEVFQARPDDLVIATYPKSGTTWVSEIVYMIYKEGDVEKCKEDVIFNRIPFLECRKENLMNGVKQLDEMNSPRIVKTHLPPELLPASFWEKDCKIIYLCRNAKDVAVSFYYFFLMVAGHPNPGSFPEFVEKFMQGQVPYGSWYKHVKSWWEKGKSPRVLFLFYEDLKEDIRKEVIKLIHFLERKPSEELVDRIIHHTSFQEMKNNPSTNYTTLPDEIMNQKLSPFMRKGITGDWKNHFTVALNEKFDKHYEQQMKESTLKFRTEI | reduced T50 values | 36.7 ± 1.2 °C | 5.7 ± 0.1^a nmol/hr/β-galactosidase units | 0.065 ± 0.0042 | 22.8 ± 6.6 nmol/hr/β-galactosidase units | 0.044 ± 0.005 | comparable to those of the wild type SULT1E1 enzyme | comparable to those of the wild type SULT1E1 enzyme
2 | Wild type: reference human SULT1E1 enzyme (SEQ ID NO:7, GenBank U08098), recombinantly expressed in COS-1 cells (protein, listed as Homo sapiens) MNSELDYYEKFEEVHGILMYKDFVKYWDNVEAFQARPDDLVIATYPKSGTTWVSEIVYMIYKEGDVEKCKEDVIFNRIPFLECRKENLMNGVKQLDEMNSPRIVKTHLPPELLPASFWEKDCKIIYLCRNAKDVAVSFYYFFLMVAGHPNPGSFPEFVEKFMQGQVPYGSWYKHVKSWWEKGKSPRVLFLFYEDLKEDIRKEVIKLIHFLERKPSEELVDRIIHHTSFQEMKNNPSTNYTTLPDEIMNQKLSPFMRKGITGDWKNHFTVALNEKFDKHYEQQMKESTLKFRTEI | – | 38.5 ± 0.92 °C | 27.2 ± 0.7^a nmol/hr/β-galactosidase units | 0.056 ± 0.0029 | 26.8 ± 4.4 nmol/hr/β-galactosidase units | 0.03 ± 0.005 | – | –
3 | Pro253His: SULT1E1 allozyme with histidine in place of proline at residue 253 (adenine at nucleotide 758) (protein, UniProt P49888 1-294, looked up, variant P253H) Sulfotransferase 1E1: MNSELDYYEKFEEVHGILMYKDFVKYWDNVEAFQARPDDLVIATYPKSGTTWVSEIVYMIYKEGDVEKCKEDVIFNRIPFLECRKENLMNGVKQLDEMNSPRIVKTHLPPELLPASFWEKDCKIIYLCRNAKDVAVSFYYFFLMVAGHPNPGSFPEFVEKFMQGQVPYGSWYKHVKSWWEKGKSPRVLFLFYEDLKEDIRKEVIKLIHFLERKPSEELVDRIIHHTSFQEMKNNPSTNYTTLPDEIMNQKLSHFMRKGITGDWKNHFTVALNEKFDKHYEQQMKESTLKFRTEI | – | 38.4 ± 0.46 °C | 34.8 ± 0.2^a nmol/hr/β-galactosidase units | 0.18 ± 0.0075 | 58.6 ± 2.5^b nmol/hr/β-galactosidase units | 0.097 ± 0.007 | ~2.8 fold | approximately 2.5 fold
4 | Asp22Tyr: SULT1E1 allozyme with tyrosine in place of aspartic acid at residue 22 (thymine at nucleotide 64) (protein, UniProt P49888 1-294, looked up, variant D22Y) Sulfotransferase 1E1: MNSELDYYEKFEEVHGILMYKYFVKYWDNVEAFQARPDDLVIATYPKSGTTWVSEIVYMIYKEGDVEKCKEDVIFNRIPFLECRKENLMNGVKQLDEMNSPRIVKTHLPPELLPASFWEKDCKIIYLCRNAKDVAVSFYYFFLMVAGHPNPGSFPEFVEKFMQGQVPYGSWYKHVKSWWEKGKSPRVLFLFYEDLKEDIRKEVIKLIHFLERKPSEELVDRIIHHTSFQEMKNNPSTNYTTLPDEIMNQKLSPFMRKGITGDWKNHFTVALNEKFDKHYEQQMKESTLKFRTEI | reduced T50 values | 35.0 ± 0.32^c ° C. | 1.9 ± 0.1^a nmol/hr/β-galactosidase units | 0.24 ± 0.0092 | 4.7 ± 0.3^b nmol/hr/β-galactosidase units | 0.22 ± 0.03 | 3.3 fold | 6 fold
